Source: publication PMC8164026, “Intrapulmonary administration of purified NEIL2 abrogates NF-κB–mediated inflammation”

B1: C1-M (dsDNA)
DNA 1: GAAACACCCTGTACTCCGAAAAGGTCCCTGGCCCGGAGCTCTG
DNA 2: CAGAGCTCGGGGCCAGGGACCTTTTCGGAGTACAGGGTGTTTC
B2: C2-M (dsDNA)
DNA 1: GGACCCTGAGCTCAGAAAAGGTCCCTGGTCCACGGGCT
DNA 2: AGCCCGTGGACCAGGGACCTTTTCTGAGCTCAGGGTCC
B3: IL6-M (dsDNA)
DNA 1: TTGCTATTAAATGTGTTCGTTTGTACAGAGTCTCAAAA
DNA 2: TTTTGAGACTCTGTACAAACGAACACATTTAATAGCAA

Target: His-RelA (p65) (UniProt Q04206 1-551)
Sequence (Q04206 whole entry): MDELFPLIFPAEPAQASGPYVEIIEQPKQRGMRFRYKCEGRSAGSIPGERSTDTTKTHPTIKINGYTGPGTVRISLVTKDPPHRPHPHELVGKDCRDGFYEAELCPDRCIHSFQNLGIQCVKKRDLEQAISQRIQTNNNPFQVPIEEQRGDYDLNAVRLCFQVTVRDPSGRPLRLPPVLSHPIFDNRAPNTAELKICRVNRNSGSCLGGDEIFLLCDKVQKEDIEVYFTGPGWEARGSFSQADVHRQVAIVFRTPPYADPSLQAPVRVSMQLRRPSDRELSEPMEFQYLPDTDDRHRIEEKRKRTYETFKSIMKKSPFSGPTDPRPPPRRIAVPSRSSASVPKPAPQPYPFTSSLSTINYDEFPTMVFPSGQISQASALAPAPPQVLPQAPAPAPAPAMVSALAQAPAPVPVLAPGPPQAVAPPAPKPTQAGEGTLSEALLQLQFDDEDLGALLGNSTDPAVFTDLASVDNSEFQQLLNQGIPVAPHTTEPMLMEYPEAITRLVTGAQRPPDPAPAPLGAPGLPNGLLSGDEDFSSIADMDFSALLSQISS
Experiment: EMSA; EMSA: 10 mM Tris-HCl pH 7.9, 50 mM NaCl, 1 mM MgCl2, 1 mM EDTA, 5 mM DTT, 5% glycerol, 0.5 µg poly dI.dC, 2-10 µg acetylated BSA, 10 min, room temperature; gel
Settings: protein: recombinant, tags: His, chain copies: 2

Binder	binding result (blunt as printed, one internal mismatch outside the motif (printed))	binding result (blunt)
B1	no binding	
B2		no binding
B3		no binding
